Results taken from the supplement of paper PMC10567573.
± gives the standard deviation.

Test: protein stability index of a GFP-peptide fusion (GPS, HEK-293T) (PSI 1-6); higher = more stable
Settings: c terminus: a fixed tail appended
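Also: 24-mer peptide tiles fused after GFP, lentivirally expressed, FACS-sorted into six equal bins by GFP/DsRed ratio, decoded by Illumina sequencing, PSI is the read-weighted mean bin number.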

| Sequence | protein stability index (treatment: DMSO) | protein stability index (treatment: MLN4924 1 uM, 8 h) |
| --- | --- | --- |
| RGYWGDIATGPFVAFGIEADDESL [DNAAF3] | 3.65 ± 0.22 | 3.65 ± 0.43 |
| RHRLRWHSFQSSHRPSLNSVSLQI [DLC1] | 2.41 ± 0.1 | 2.58 ± 0.097 |
| RIATETDQIGSEIIEELGEQRDQL [VTI1B] | 5.38 ± 0.2 | 5.37 ± 0.14 |
| RIIDKPRVIEVLPRGATAAVLAPD [SEPHS2] | 3.88 ± 0.23 | 4.08 ± 0.068 |
| RIKGVEVFCPLDPPPPYEAVVSQM [FAM189A2] | 2.83 ± 0.33 | 2.88 ± 0.22 |
| RKDVGCNRFEVTLEKSNKNFSKKI [VPS39] | 3.62 ± 0.22 | 3.98 ± 0.2 |
| RKEMATILSKMPKPKPPPNSEGEQ [CCNC] | 5.06 ± 0.34 | 5.06 ± 0.19 |
| RKRIHDSRVAGFNPALQLILTRTD [TOR1AIP2] | 4.2 ± 0.17 | 4.18 ± 0.19 |
| RKRLAREMQLSEVQIKTWFQNRRM [VENTX] | 2.67 ± 0.24 | 2.73 ± 0.41 |
| RLALEKVPKVGQRFNRIGLPPKVG [PI4K2A] | 3.23 ± 0.3 | 3.21 ± 0.097 |
| RLASYLDKVRALEEANADLEVKIR [KRT16] | 2.39 ± 0.26 | 2.59 ± 0.5 |
| RLATVHMSRMINKYKRRRFQKTKN [CLPTM1] | 3.16 ± 0.36 | 3.54 ± 0.49 |
| RLCRLAGASSPAAYDEALAELHAH [ZSWIM9] | 3.29 ± 0.36 | 3.33 ± 0.2 |
| RLEPLEHRRRTICGTPNYLSPEVL [PLK2] | 3.55 ± 0.19 | 3.67 ± 0.1 |
| RLQQLRRLRGLLRVLRGRPGAGSR [FBXO33] | 2.36 ± 0.21 | 2.66 ± 0.62 |
| RLQRKLVEPKHCFTSPDYQQQCHE [SDE2] | 3.67 ± 0.2 | 3.69 ± 0.2 |
| RLSKELLAEYQDLTFLTKQEILLA [CIB1] | 2.16 ± 0.17 | 2.11 ± 0.22 |
| RLWSLSYTKLPSSLQSTGKCLLYC [SLC25A39] | 2.78 ± 0.62 | 2.73 ± 0.52 |
| RMLTDKEREMAEIRDQMQQQLNDY [LMNB1] | 4.93 ± 0.3 | 5.08 ± 0.19 |
| RMSEDKPQDYKKRLSVELTSSLFR [CTNNB1] | 3.4 ± 0.1 | 3.42 ± 0.25 |
| RNDKIKHVQNQVDEVIDVMQENIT [VAMP4] | 4.51 ± 0.33 | 4.4 ± 0.98 |
| RNLQDLARIYIRRTLRNFINDEMQ [PCMTD1] | 2.07 ± 0.18 | 2.49 ± 0.69 |
| RNTKRDVTLEASRENSKPRAILKP [PPP2R2B] | 4.44 ± 0.47 | 4.79 ± 0.056 |

| Sequence | protein stability index (treatment: DMSO) | protein stability index (treatment: MLN4924 1 uM, 8 h) |
| --- | --- | --- |
| RPCRKFLLTGQCDFGSNCRFSHMS [ZMAT5] | 4.2 ± 0.74 | 4.28 ± 0.58 |
| RPVAPRRPRDAVGQRGAQGAGRRR [SMAD6] | 5.27 ± 0.23 | 5.43 ± 0.14 |
| RQERVSLYPFQIHSIALSTFASLI [CDS1] | 3.04 ± 0.61 | 2.92 ± 0.49 |
| RQLTKPRPVILDPADPTGNLGGGD [OAS1] | 4.65 ± 0.23 | 4.48 ± 0.31 |
| RQLVEADINGLRRILDELTLCKAD [KRT36] | 3.2 ± 0.24 | 3.32 ± 0.26 |
| RQRFRHLRYQETPGPREALSQLRV [ZNF232] | 3.13 ± 0.27 | 3.39 ± 0.28 |
| RRASICCTQLGSLSALKHAVLGLY [SCARA5] | 2.44 ± 0.38 | 2.07 ± 0.28 |
| RRFLLCLYLVGFLDLFGVSMVVPL [MFSD9] | 2.91 ± 0.57 | 3.4 ± 0.17 |
| RRHCQACRLKRCVDIGMMKEFILT [VDR] | 2.77 ± 0.72 | 2.15 ± 0.28 |
| RRHPQGAWKELDRNYLNYGEEGAP [CHGB] | 4.05 ± 0.28 | 4.1 ± 0.34 |
| RRILDELTLCRSDLEAQMESLKEE [KRT33B] | 4.56 ± 0.14 | 4.66 ± 0.11 |
| RRLGLSTLGELKQNLSRSWHDVQV [TPD52L2] | 2.9 ± 0.24 | 2.96 ± 0.24 |
| RSKIYLRFLDYEMQNSNECKRNFV [NETO1] | 2.1 ± 0.2 | 2.28 ± 0.091 |
| RSRLRPRDDLDRLGVFLDYEAGVL [TRIM14] | 2.47 ± 0.4 | 2.59 ± 0.48 |
| RTTKPMAQRSAHCSRPSGSSSSSG [CSNK1G1] | 4.39 ± 0.18 | 4.43 ± 0.2 |
| RVIMIVTDGRPQDSVAEVAAKARD [MATN2] | 3.165 ± 0.024 | 2.76 ± 0.6 |
| RVSDVQKVLQGGEQEIQFEDFTNT [PKD2L1] | 4.8 ± 0.6 | 4.85 ± 0.36 |
| RYGCGHRGCGDGCCCPSCYRRYRF [KRTAP19-2] | 3.29 ± 0.27 | 3.62 ± 0.54 |
| RYQKYGYIGTHEYPHFSHRPSTLQ [OAS1] | 2.18 ± 0.14 | 2.45 ± 0.15 |
| SAAGHLDVVRSLLRRGASVNRTTR [FEM1A] | 3.5 ± 0.33 | 3.75 ± 0.33 |
| SALTLACYKGHLEMVRFLLEAGAD [ANKRD17] | 3.08 ± 0.31 | 2.69 ± 0.24 |
| SAVLFYVNMYVSIVFFGLISFDRY [P2RY14] | 3.04 ± 0.35 | 3.22 ± 0.36 |
| SDDNAKLPCFNGRVVSWLVSAEGS [DVL3] | 3.07 ± 0.19 | 3.06 ± 0.26 |

| Sequence | protein stability index (treatment: DMSO) | protein stability index (treatment: MLN4924 1 uM, 8 h) |
| --- | --- | --- |
| SDNSGQVSPPESPTVTTSWQSESL [BCL2L13] | 5.13 ± 0.2 | 5.02 ± 0.23 |
| SDNSWVLAGSESLPVETLGPASRM [PBXIP1] | 3.83 ± 0.15 | 4.02 ± 0.5 |
| SDVNDNAPRFNQQLYTAYILENRP [PCDHGC5] | 2.87 ± 0.26 | 3.1 ± 0.31 |
| SEADSEAGELRKPTQEEWRQVVDI [PPEF2] | 5.45 ± 0.15 | 5.46 ± 0.34 |
| SEEEKELYLNLALHLASDFFLKHP [PDS5B] | 2.19 ± 0.36 | 2.18 ± 0.36 |
| SEGTNLNAPNSLGVSALCAICGDR [HNF4A] | 3.88 ± 0.28 | 4.13 ± 0.26 |
| SEIKNLERYMCSRFFIDFPHIEEQ [TENT5D] | 2.42 ± 0.15 | 2.22 ± 0.35 |
| SELERLIVPNSNGVITTTPTPPGQ [JUNB] | 4.65 ± 0.16 | 4.75 ± 0.097 |
| SENCPKVISCEFAHNSNWYITFQS [LARP4] | 2.21 ± 0.23 | 2.08 ± 0.27 |
| SFCLEDTECEGDIQKNYECANFGD [LOXL2] | 5.14 ± 0.14 | 5.33 ± 0.2 |
| SFGPQPISRLEQCGINANDVKKLE [RAD51] | 4.27 ± 0.18 | 4.37 ± 0.14 |
| SFGWSDRAKVKTDDIARIYQPKRY [FAM98B] | 2.9 ± 0.38 | 2.99 ± 0.54 |
| SGGITHDTFQKELMCFDPDTDKWI [KLHL13] | 3.94 ± 0.16 | 4.17 ± 0.25 |
| SHLSNGLDPVAETAIRQLTEPSGR [C2CD2L] | 4.34 ± 0.31 | 4.58 ± 0.3 |
| SHRPNMELCRDAAQFRLLSEVEEL [TEKT4] | 3.82 ± 0.3 | 3.72 ± 0.05 |
| SIDFNKDGHIDINEFLEAFRLVEK [PPEF2] | 2.88 ± 0.17 | 3.32 ± 0.4 |
| SIEYDSEPFGKERDAAIKKLATEA [CRY1] | 5.18 ± 0.14 | 4.87 ± 0.7 |
| SKLCTSYSHSSTRDGRRDRYSSDT [GOSR1] | 4.32 ± 0.25 | 4.18 ± 0.16 |
| SKPSIQPKPLLLPAAPKTQTISSI [ATF6] | 3.88 ± 0.32 | 3.82 ± 0.31 |
| SLCKALAQKLTIRLSSRYRYGQLI [TRIP13] | 3.01 ± 0.47 | 3.16 ± 0.66 |
| SLEMDSDEDDSEELEEDDGHGAEQ [EHMT1] | 5.45 ± 0.27 | 5.62 ± 0.38 |
| SLFAFKSFRENWQRAWVRALNEQA [C2CD2L] | 2.15 ± 0.08 | 2.1 ± 0.23 |
| SLGALDLLGPATGCLLDDGLEGLF [SERTAD1] | 2.6 ± 0.24 | 2.57 ± 0.32 |

| Sequence | protein stability index (treatment: DMSO) | protein stability index (treatment: MLN4924 1 uM, 8 h) |
| --- | --- | --- |
| SLGKARTAQVQKDARIGEAEAKRD [FLOT1] | 5.31 ± 0.21 | 5.12 ± 0.36 |
| SLLQKVSPVAHKHLSRQKIDPLLY [TBC1D10A] | 2.07 ± 0.19 | 2.24 ± 0.2 |
| SLQPQQQQQRQRPPRPPPRGTPPR [N4BP2L1] | 3.81 ± 0.17 | 4.16 ± 0.2 |
| SNDNEERLQVVKLLAKMFGAKDSE [PDS5B] | 3.17 ± 0.3 | 3.12 ± 0.4 |
| SNKYGFGYQLSDHTVGVLFNNGAH [PLK2] | 2.61 ± 0.41 | 2.58 ± 0.5 |
| SNSCPAELPNIKREISETEAKALL [TFE3] | 5.1 ± 0.098 | 5.18 ± 0.12 |
| SNVRWDHESVCKYYLCGFCPAELF [LUC7L3] | 2.25 ± 0.37 | 2.29 ± 0.34 |
| SPDKDSIMNIEPAILVMHHSMKPH [INTS3] | 3.32 ± 0.3 | 3.5 ± 0.2 |
| SPDSSMLCSVGASKAVFLWNMDKY [WSB1] | 2.35 ± 0.42 | 2.35 ± 0.26 |
| SPEWDTVTPEAKDLINKMLTINPA [CAMK2D] | 4.24 ± 0.42 | 4.54 ± 0.12 |
| SPKELKRRNSSSSMSSRLSIYDNV [DLC1] | 3.92 ± 0.32 | 3.94 ± 0.39 |
| SPPPAPTSSTFGLQDGNLRAPHKE [CHCHD6] | 5.11 ± 0.5 | 5.32 ± 0.14 |
| SQSSASQPRLSYAEMAEDYPRYPD [CLCN6] | 4.83 ± 0.14 | 4.86 ± 0.13 |
| SRAALVCRKWNQMMYSAELWRYRT [FBXO39] | 2.45 ± 0.56 | 2.15 ± 0.25 |
| SRCRKLVEYFQQSAVAMYMLYEKQ [ZBED1] | 2.44 ± 0.65 | 2.13 ± 0.22 |
| SRFISANLPCNKFKNRLVNIMPYE [PTPRD] | 2.13 ± 0.42 | 1.98 ± 0.13 |
| SRLTPGGKAAQAGVAVGDWVLSID [PDLIM7] | 2.63 ± 0.29 | 3.02 ± 0.61 |
| SSESSSDSDNSGGGGGGGGGGGGG [ANKRD17] | 5.59 ± 0.27 | 5.7 ± 0.12 |
| SSHEPCSATCTTGVMSAYAMCVRY [ADAMTSL2] | 2.24 ± 0.3 | 2.32 ± 0.19 |
| SSHKQGHTSSEYDMLREMFSDSRS [TAF7L] | 4.11 ± 0.21 | 4.13 ± 0.26 |
